Data reported in US20180311348A1 (LUDWIG MAXIMILIANS UNIVERSIT T M NCHEN, published 2018).

What was measured:
CD33 [1] = molecular target: T1, CD33 (human, UniProt P20138 18-364); assay: calibrated flow cytometry titration on MOLM-13 cells, KD as an avidity value
T1 construct: whole, on cells; Species is stated as human for the transfected lines; also called human CD33; CHO.exCD33
Description: (§1) CD33 equilibrium binding constants (KD, as an avidity measurement) of the licMABs and mAb were determined by calibrated flow cytometry analyses as previously described (Benedict et al., 1997; J. Immunol. Methods; 201(2); 223-231). Briefly, MOLM-13 cells were incubated with licMABs or mAb in concentrations ranging from 0.01 to 15 μg/ml and stained with a FITC antiHuman IgG Fc (clone HP6017, BioLegend) secondary antibody by flow cytometry. The instrument was calibrated with 3.0-3.4 μm Rainbow Calibration particles of 8 peaks (BioLegend), the maximum MFI value was set to 100% and all data points were normalized accordingly. The assay was performed in quadruplicates and the values were analyzed by non-linear regression using a one-site specific binding model.

CD33 [2] = molecular target: T1, CD33; assay: column 'KD MOLM-13': calibrated flow cytometry on MOLM-13 cells, KD as an avidity value
Description: as §1

CD33 [3] = molecular target: T1, CD33; assay: calibrated flow cytometry titration on MOLM-13 cells, KD as an avidity value; panel 'KD determination of Fc-engineered licMABs'
Description: as §1

CD33 [4] = molecular target: T1, CD33; assay: flow cytometry titration on MOLM-13 cells (CD33+ CD47+), KD as an avidity value
CD33 [5] = molecular target: T1, CD33; assay: column 'KD MOLM-13': flow cytometry on MOLM-13 cells (CD33+ CD47+), KD as an avidity value
CD47 [6] = molecular target: T2, CD47 (human, UniProt Q08722 19-323); assay: cell-based or functional assay
CD47 [7] = molecular target: T2, CD47; assay: flow cytometry titration on CHO.exCD47 cells, anti-HIS ALEXA-488 detection, n=3

T1 sequence (P20138 18-364): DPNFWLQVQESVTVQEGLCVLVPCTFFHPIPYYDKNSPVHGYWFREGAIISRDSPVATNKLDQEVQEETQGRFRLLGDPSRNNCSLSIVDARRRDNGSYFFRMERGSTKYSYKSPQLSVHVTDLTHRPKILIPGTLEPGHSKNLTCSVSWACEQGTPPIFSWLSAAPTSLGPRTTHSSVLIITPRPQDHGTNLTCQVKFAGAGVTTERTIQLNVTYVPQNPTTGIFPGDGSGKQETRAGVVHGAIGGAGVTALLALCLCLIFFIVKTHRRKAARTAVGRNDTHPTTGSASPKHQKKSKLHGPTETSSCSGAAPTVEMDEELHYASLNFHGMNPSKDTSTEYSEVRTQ

| Binder | Kd (CD33 [1]) [nM] | Kd (CD33 [2]) [nM] | Kd (CD33 [3]) [nM] | Kd (CD33 [4]) [nM] | Kd (CD33 [5]) [nM] | EC50 (concentration of half maximum lysis), redirected lysis of MOLM 13 cells by expanded PBMC effector cells, E:T 2:1, 4 h (CD47 [6]) [nM] | Kd (CD47 [7]) [nM] |
| --- | --- | --- | --- | --- | --- | --- | --- |
| αCD33 mAB (antibody, human IgG1, Human IgG1/kappa (pFUSE-CHIg-hG1, pFUSE2-CLIg-hk); It was obtained from SIRPα-PreSc-antiCD33 by PreScission cleavage, so residues of the cleavage site may remain at the light chain N-terminus; also called antiCD33 mAb; anti-CD33 mAB (clone hP67.6)) heavy: not shown light: DIQLTQSPSTLSASVGDRVTITCRASESLDNYGIRFLTWFQQKPGKAPKLLMYAASNQGSGVPSRFSGSGSGTEFTLTISSLQPDDFATYYCQQTKEVPWSFGQGTKVEVKVAAPSVFIFPPSDEQLKSGTASVVCLLNNFYPREAKVQWKVDNALQSGNSQESVTEQDSKDSTYSLSSTLTLSKADYEKHKVYACEVTHQGLSSPVTKSFNRGEC | 3 | 3 | – | – | – | – | – |
| Fc-engineered variant of αCD33 mAB (antibody, human IgG1, Same as m7 with the Fc-engineered IgG1 constant region (S239D, I332E); also called Fc-engineered mAB) heavy: not shown light: DIQLTQSPSTLSASVGDRVTITCRASESLDNYGIRFLTWFQQKPGKAPKLLMYAASNQGSGVPSRFSGSGSGTEFTLTISSLQPDDFATYYCQQTKEVPWSFGQGTKVEVKVAAPSVFIFPPSDEQLKSGTASVVCLLNNFYPREAKVQWKVDNALQSGNSQESVTEQDSKDSTYSLSSTLTLSKADYEKHKVYACEVTHQGLSSPVTKSFNRGEC | – | 2 | 2 | – | – | – | – |
| SirpIg-SirpIg-anti-CD16-anti-CD33 liCAD (other) EEELQVIQPDKSVLVAAGETATLRCTATSLIPVGPIQWFRGAGPGRELIYNQKEGHFPRVTTVSDLTKRNNMDFSIRIGNITPADAGTYYCVKFRKGSPDDVEFKSGAGTELSVRAKPSGGGGSGGGGSGGGGSGGGGSEEELQVIQPDKSVLVAAGETATLRCTATSLIPVGPIQWFRGAGPGRELIYNQKEGHFPRVTTVSDLTKRNNMDFSIRIGNITPADAGTYYCVKFRKGSPDDVEFKSGAGTELSVRAKPSGGGGSGGGGSGGGGSGGGGSQVTLKESGPGILQPSQTLSLTCSFSGFSLRTSGMGVGWIRQPSGKGLEWLAHIWWDDDKRYNPALKSRLTISKDTSSNQVFLKIASVDTADTATYYCAQINPAWFAYWGQGTLVTVSAGGGGSGGGGSGGGGSGGGGSDTVLTQSPASLAVSLGQRATISCKASQSVDFDGDSFMNWYQQKPGQPPKLLIYTTSNLESGIPARFSASGSGTDFTLNIHPVEEEDTATYYCQQSNEDPYTFGGGTKLEIKGGGGSGGGGSGGGGSGGGGSDIQLTQSPSTLSASVGDRVTITCRASESLDNYGIRFLTWFQQKPGKAPKLLMYAASNQGSGVPSRFSGSGSGTEFTLTISSLQPDDFATYYCQQTKEVPWSFGQGTKVEVKGGGGSGGGGSGGGGSGGGGSEVQLVQSGAEVKKPGSSVKVSCKASGYTITDSNIHWVRQAPGQSLEWIGYIYPYNGGTDYNQKFKNRATLTVDNPTNTAYMELSSLRSEDTAFYYCVNGNPWLAYWGQGTLVTVSS | – | – | – | 30 | 30 | 0.0015 | 21 |
